Test results published in PMC6688830, “A Ubiquitin-Binding Domain that Binds a Structural Fold Distinct from that of Ubiquitin” (Structure(London, England:1993), 2019).

T1: FLAG-SMARCAD1 (WT) (human, UniProt Q9H4L7 1-1026)
T1 construct: SMARCAD1, human, UniProt Q9H4L7, full length; also called wild-type SMARCAD1; pET28a-SUMO-F-SMARCAD1; source: E. coli BL-21 CodonPlus (DE3)-RIL, purified (HisTrap, Ulp1, heparin, ProSwift SAX)
T1 sequence (looked up): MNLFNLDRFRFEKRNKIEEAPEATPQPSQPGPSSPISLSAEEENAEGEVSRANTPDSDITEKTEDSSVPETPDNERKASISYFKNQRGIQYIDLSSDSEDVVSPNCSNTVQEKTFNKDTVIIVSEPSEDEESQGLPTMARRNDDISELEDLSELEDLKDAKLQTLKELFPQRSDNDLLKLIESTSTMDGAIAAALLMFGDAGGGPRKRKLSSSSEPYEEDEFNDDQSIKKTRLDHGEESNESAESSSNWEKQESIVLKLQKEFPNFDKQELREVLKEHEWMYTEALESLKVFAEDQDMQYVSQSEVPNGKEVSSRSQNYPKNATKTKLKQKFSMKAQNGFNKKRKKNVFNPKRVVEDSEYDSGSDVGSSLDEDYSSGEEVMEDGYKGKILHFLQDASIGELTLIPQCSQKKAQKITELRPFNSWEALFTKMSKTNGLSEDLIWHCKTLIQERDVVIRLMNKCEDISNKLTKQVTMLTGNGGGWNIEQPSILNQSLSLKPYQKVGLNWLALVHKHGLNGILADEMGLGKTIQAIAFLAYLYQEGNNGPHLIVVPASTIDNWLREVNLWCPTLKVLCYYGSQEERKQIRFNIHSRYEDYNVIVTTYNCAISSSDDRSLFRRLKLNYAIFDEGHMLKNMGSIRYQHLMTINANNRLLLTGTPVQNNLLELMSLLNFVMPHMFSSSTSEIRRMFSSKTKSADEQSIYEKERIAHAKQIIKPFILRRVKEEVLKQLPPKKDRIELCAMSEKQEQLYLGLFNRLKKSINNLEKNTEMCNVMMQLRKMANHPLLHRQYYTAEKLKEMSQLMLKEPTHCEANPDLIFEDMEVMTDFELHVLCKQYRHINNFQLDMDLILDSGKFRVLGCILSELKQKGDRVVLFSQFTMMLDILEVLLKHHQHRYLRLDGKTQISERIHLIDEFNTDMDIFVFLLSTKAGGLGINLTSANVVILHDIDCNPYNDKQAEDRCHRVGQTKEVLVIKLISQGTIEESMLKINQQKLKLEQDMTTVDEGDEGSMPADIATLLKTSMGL


target: T2, KAP1 S33-K434 (human, UniProt Q13263 33-434); assay: co-IP; purified SMARCAD1 fragments (FLAG-CUE1,2, FLAG-CUE1) and KAP1 RBCC, 9.6μg each in 240μL, 4°C 1 hour; anti-FLAG M2 affinity gel 3 hours; settings: both partners purified
T2 construct: KAP1 (TRIM28), human, UniProt Q13263, residues S33-K434 (RBCC domain); The crystal structures of shorter RBCC constructs show an antiparallel homodimer; also called KAP1 RBCC (S33-K434); KAP1 RBCC; source: E. coli BL-21 CodonPlus (DE3)-RP, purified (Ni-NTA, Ulp1, Mono Q)

| binding result | Binder |
| --- | --- |
| binds | FLAG-CUE1,2 K161A (domain or fragment, human, UniProt Q9H4L7 95-347, looked up, SMARCAD1, human, UniProt Q9H4L7, CUE1,2 fragment S95-N347; source: E. coli BL-21 CodonPlus (DE3)-RIL, purified (Ni-NTA, Ulp1, Mono Q if required)) SSDSEDVVSPNCSNTVQEKTFNKDTVIIVSEPSEDEESQGLPTMARRNDDISELEDLSELEDLKDAALQTLKELFPQRSDNDLLKLIESTSTMDGAIAAALLMFGDAGGGPRKRKLSSSSEPYEEDEFNDDQSIKKTRLDHGEESNESAESSSNWEKQESIVLKLQKEFPNFDKQELREVLKEHEWMYTEALESLKVFAEDQDMQYVSQSEVPNGKEVSSRSQNYPKNATKTKLKQKFSMKAQNGFNKKRKKN |
| binds | FLAG-CUE1,2 D188A (domain or fragment, human, UniProt Q9H4L7 95-347, looked up, SMARCAD1, human, UniProt Q9H4L7, CUE1,2 fragment S95-N347; source: E. coli BL-21 CodonPlus (DE3)-RIL, purified (Ni-NTA, Ulp1, Mono Q if required)) SSDSEDVVSPNCSNTVQEKTFNKDTVIIVSEPSEDEESQGLPTMARRNDDISELEDLSELEDLKDAKLQTLKELFPQRSDNDLLKLIESTSTMAGAIAAALLMFGDAGGGPRKRKLSSSSEPYEEDEFNDDQSIKKTRLDHGEESNESAESSSNWEKQESIVLKLQKEFPNFDKQELREVLKEHEWMYTEALESLKVFAEDQDMQYVSQSEVPNGKEVSSRSQNYPKNATKTKLKQKFSMKAQNGFNKKRKKN |
| binds | FLAG-CUE1,2 K166A (domain or fragment, human, UniProt Q9H4L7 95-347, looked up, SMARCAD1, human, UniProt Q9H4L7, CUE1,2 fragment S95-N347; source: E. coli BL-21 CodonPlus (DE3)-RIL, purified (Ni-NTA, Ulp1, Mono Q if required)) SSDSEDVVSPNCSNTVQEKTFNKDTVIIVSEPSEDEESQGLPTMARRNDDISELEDLSELEDLKDAKLQTLAELFPQRSDNDLLKLIESTSTMDGAIAAALLMFGDAGGGPRKRKLSSSSEPYEEDEFNDDQSIKKTRLDHGEESNESAESSSNWEKQESIVLKLQKEFPNFDKQELREVLKEHEWMYTEALESLKVFAEDQDMQYVSQSEVPNGKEVSSRSQNYPKNATKTKLKQKFSMKAQNGFNKKRKKN |
| binds | FLAG-CUE1,2 A192G (domain or fragment, human, UniProt Q9H4L7 95-347, looked up, SMARCAD1, human, UniProt Q9H4L7, CUE1,2 fragment S95-N347; source: E. coli BL-21 CodonPlus (DE3)-RIL, purified (Ni-NTA, Ulp1, Mono Q if required)) SSDSEDVVSPNCSNTVQEKTFNKDTVIIVSEPSEDEESQGLPTMARRNDDISELEDLSELEDLKDAKLQTLKELFPQRSDNDLLKLIESTSTMDGAIGAALLMFGDAGGGPRKRKLSSSSEPYEEDEFNDDQSIKKTRLDHGEESNESAESSSNWEKQESIVLKLQKEFPNFDKQELREVLKEHEWMYTEALESLKVFAEDQDMQYVSQSEVPNGKEVSSRSQNYPKNATKTKLKQKFSMKAQNGFNKKRKKN |
| binds | FLAG-CUE1,2 Q171A (domain or fragment, human, UniProt Q9H4L7 95-347, looked up, SMARCAD1, human, UniProt Q9H4L7, CUE1,2 fragment S95-N347; source: E. coli BL-21 CodonPlus (DE3)-RIL, purified (Ni-NTA, Ulp1, Mono Q if required)) SSDSEDVVSPNCSNTVQEKTFNKDTVIIVSEPSEDEESQGLPTMARRNDDISELEDLSELEDLKDAKLQTLKELFPARSDNDLLKLIESTSTMDGAIAAALLMFGDAGGGPRKRKLSSSSEPYEEDEFNDDQSIKKTRLDHGEESNESAESSSNWEKQESIVLKLQKEFPNFDKQELREVLKEHEWMYTEALESLKVFAEDQDMQYVSQSEVPNGKEVSSRSQNYPKNATKTKLKQKFSMKAQNGFNKKRKKN |

target: T1, FLAG-SMARCAD1 (WT); assay: co-IP; purified full-length SMARCAD1 and KAP1 from E. coli, 7μg each in 280μL SK binding buffer, 200mM NaCl, 4°C; immunoprecipitated with anti-FLAG M2 affinity gel; settings: both partners purified

| binding result | Binder |
| --- | --- |
| binds | HA-KAP1 (natural protein, human, UniProt Q13263 1-835, looked up, KAP1 (TRIM28), human, UniProt Q13263, full length; also called hemagglutinin-tagged KAP1; TRIM28; source: E. coli BL-21 CodonPlus (DE3)-RP, purified (HisTrap, Ulp1, heparin, Sephacryl S-400)) MAASAAAASAAAASAASGSPGPGEGSAGGEKRSTAPSAAASASASAAASSPAGGGAEALELLEHCGVCRERLRPEREPRLLPCLHSACSACLGPAAPAAANSSGDGGAAGDGTVVDCPVCKQQCFSKDIVENYFMRDSGSKAATDAQDANQCCTSCEDNAPATSYCVECSEPLCETCVEAHQRVKYTKDHTVRSTGPAKSRDGERTVYCNVHKHEPLVLFCESCDTLTCRDCQLNAHKDHQYQFLEDAVRNQRKLLASLVKRLGDKHATLQKSTKEVRSSIRQVSDVQKRVQVDVKMAILQIMKELNKRGRVLVNDAQKVTEGQQERLERQHWTMTKIQKHQEHILRFASWALESDNNTALLLSKKLIYFQLHRALKMIVDPVEPHGEMKFQWDLNAWTKSAEAFGKIVAERPGTNSTGPAPMAPPRAPGPLSKQGSGSSQPMEVQEGYGFGSGDDPYSSAEPHVSGVKRSRSGEGEVSGLMRKVPRVSLERLDLDLTADSQPPVFKVFPGSTTEDYNLIVIERGAAAAATGQPGTAPAGTPGAPPLAGMAIVKEEETEAAIGAPPTATEGPETKPVLMALAEGPGAEGPRLASPSGSTSSGLEVVAPEGTSAPGGGPGTLDDSATICRVCQKPGDLVMCNQCEFCFHLDCHLPALQDVPGEEWSCSLCHVLPDLKEEDGSLSLDGADSTGVVAKLSPANQRKCERVLLALFCHEPCRPLHQLATDSTFSLDQPGGTLDLTLIRARLQEKLSPPYSSPQEFAQDVGRMFKQFNKLTEDKADVQSIIGLQRFFETRMNEAFGDTKFSAVLVEPPPMSLPGAGLSSQELSGGPGDGP |
